Publication PMC4051761

How the values were obtained:
[1] = molecular target: MA.FP: HIV-1 matrix protein (MA) carrying eCFP or eYFP, in mature HIV^eCFP/eYFP particles (HIV-1 NL4-3); assay: FRET or BRET; stopped-flow; dual-labeled particles mixed with 0.05% TX-100 in PBS at 25°C, excitation 436 nm, long pass filter 515 nm; five to six traces averaged; single or double exponential fits of the FRET decay
[2] = molecular target: MA-CA.FP: uncleaved MA-CA Gag derivative carrying eCFP or eYFP, in HIV^eCFP/eYFP particles of the MA-CA cleavage site variant (HIV-1 NL4-3); assay: as above
[3] = molecular target: MA-SP1.FP: uncleaved MA-CA-SP1 Gag derivative carrying eCFP or eYFP, in HIV^eCFP/eYFP particles of the MA-SP1 cleavage site variant (HIV-1 NL4-3); assay: as above
[4] = molecular target: MA-SP1.FP: uncleaved MA-CA-SP1 Gag derivative carrying eCFP or eYFP, in HIV^eCFP/eYFP particles of the MA-SP1 cleavage site variant (HIV-1 NL4-3); assay: FRET or BRET; cuvette-based; dual-labeled particles in PBS at 25°C, 0.05% TX-100 added at t = 0 to strip the lipid envelope; emission at 528 nm (excitation 433 nm) followed at 1 s resolution, or spectra after 15 min; normalized to the signal before detergent
[5] = molecular target: Gag.FP: unprocessed HIV-1 Gag polyprotein carrying eCFP or eYFP between MA and CA, in immature HIV^eCFP/eYFP particles (HIV-1 NL4-3); assay: FRET or BRET; stopped-flow; dual-labeled particles mixed with 0.05% TX-100 in PBS at 25°C, excitation 436 nm, long pass filter 515 nm; five to six traces averaged; single or double exponential fits of the FRET decay

MA.FP: HIV-1 matrix protein (MA) carrying eCFP or eYFP, in mature HIV^eCFP/eYFP particles (natural protein)
k1, rate constant of FRET decay (single exponential) [1]: 0.099 s⁻¹

MA-CA.FP: uncleaved MA-CA Gag derivative carrying eCFP or eYFP, in HIV^eCFP/eYFP particles of the MA-CA cleavage site variant (domain or fragment)
k1, rate constant of FRET decay (fast phase, double exponential) [2]: 0.127 s⁻¹
k2, rate constant of FRET decay (slow phase, double exponential) [2]: 0.0082 s⁻¹

MA-SP1.FP: uncleaved MA-CA-SP1 Gag derivative carrying eCFP or eYFP, in HIV^eCFP/eYFP particles of the MA-SP1 cleavage site variant (domain or fragment)
k1, rate constant of FRET decay (fast phase, double exponential) [3]: 0.129 s⁻¹
k2, rate constant of FRET decay (slow phase, double exponential) [3]: 0.0078 s⁻¹
plateau of the FRET signal after detergent, % of the initial value [4]: 75%

Gag.FP: unprocessed HIV-1 Gag polyprotein carrying eCFP or eYFP between MA and CA, in immature HIV^eCFP/eYFP particles (natural protein)
k1, rate constant of FRET decay (single exponential) [5]: 0.018 s⁻¹
